From patent US20100081624A1, “SELECTIVE PEPTIDES THAT INHIBIT THE BIOLOGICAL ACTIVITY OF CALCINEURIN” (Consejo Superior de Investigaciones Cientficas, priority 2005, published 2010)

Biological target: Calcineurin (CN) of HeLa cells, endogenous
Assay: cell-based or functional assay

| Substance | percentage of cells with cytosolic NFATc2 staining after calcium ionophore [%] |
| --- | --- |
| GFP-LxVPc1 fusion protein | 77 |
| GFP-VIVIT fusion protein | 92 |
